Laboratory results as given in article PMC9825169, “The Caulobacter crescentus DciA promotes chromosome replication through topological loading of the DnaB replicative helicase at replication forks” (Nucleic Acids Research, 2022).

B1: DnaB with a C-terminal hexahistidine tag (DnaB-His; 56 kDa) (enzyme, Caulobacter crescentus, UniProt A0A0H3C7A8 1-507, looked up)
chain: MPMSLVPALDLVLPGLPEPTINVAPHNMEAEQALLGVLLYDNAAYERLSDNLQARCFYEPFHQRLFQAIETHVRKGQLAEPILLADEFKKDPAFEELGGLRYLADLVDRAPPAANVGDYARVIFDLSLRRELIRIGGDIATAAQGGNDEKRNARDQIEAAEQSLYSLAESGAASSGFVSFGDALRGAVEMTAEAYSRDGGMSGVSTDLMDLDQKIGGLHPSDLIILAGRPSMGKTALATNIAFNIAKKYAYEIQPDGTKKTVQGGVVAFYSLEMSAEQLALRMLADASGVSGDRLRKGEIDASEFGRVRDAAMELQNAPLYIDATGGISIAKLTARARRLKRQVGLDLIVVDYLQLVTGSDLGANANRVQEVSQITMGLKALAKELSVPVIALSQLSRQVEQRDDKRPQLSDLRESGSIEQDADMVWFVYREAYYVGRAEPREGTPEHLTWQEEMDRLQGLAEVIIAKQRHGPIGTVRLSFNSDTTRFGNLARDHYFAQARNIPSDE
notes: Replicative DNA helicase DnaB (CCNA_01737) of Caulobacter crescentus; Hexamer by size exclusion chromatography; Construction details are in the Supplemental Materials; also called C. crescentus DnaB; CCNA_01737; source: E. coli, purified (procedure in the Supplemental Material); not shown: His6, C-terminal, kept
B2: DciA with an N-terminal hexahistidine tag (His-DciA; 21 kDa) (natural protein, Caulobacter crescentus, UniProt A0A0H3C5R2 1-179, looked up)
chain: MRRPLPTPEEAIAILRSKRTKPQRRPPPPAGKNLAPLLKDLEDRFGKGPAALQARWKEIVGDTLARRTEPVRIIKGRNGEGGALELRVDGPVASLIQHQAPQITARLDMLLGKGVVTRLRIVQGPVKAPAAAPSTRLRRKPPLDAALEKQLADSLAEQPDGALKQALLKLGRGVLSSER
notes: DciA (CCNA_00380) of Caulobacter crescentus; This is surmised from the primer; construction details are in the Supplemental Materials; source: E. coli, purified (procedure in the Supplemental Material); not shown: His6, N-terminal, kept

How the values were obtained:
DnaB-His = molecular target: T1, DnaB-His (Caulobacter vibrioides, UniProt A0A0H3C7A8); test: ATPase assay, [alpha-32P]ATP, TLC on PEI cellulose, Michaelis-Menten fit; type: biochemical; settings: pH 7.5, 10 mM magnesium acetate, 30 C, 5-160 uM ATP, 8.3 nM hexamer, no DciA; labelled compound
T1 construct: gene CCNA_01737; full-length, C-terminal His6 tag kept, expressed in E. coli Rosetta 2(DE3), 56 kDa monomer, hexamer (330 kDa) from size exclusion chromatography

[1] = molecular target: the molecule itself; test: SEC; Superdex 200 Increase 10/300 GL; 25 mM Tris-HCl pH 7.5, 300 mM sodium chloride, 20% glycerol, 0.1 mM ATP, 5 mM magnesium chloride; 0.2 ml/min; DnaB-His 10 nmol, His-DciA 25 nmol, alone or mixed; fractions on SDS-PAGE with Coomassie staining
[2] = molecular target: B1; test: as above; settings: both partners purified

In the case of `Nc1ncnc2c1ncn2[C@@H]1O[C@H](COP(=O)(O)OP(=O)(O)OP(=O)(O)O)[C@@H](O)[C@H]1O` [ATP], the “ATPase assay, [alpha-32P]ATP, TLC on PEI cellulose, Michaelis-Menten fit” value (DnaB-His) is reported as “ATP hydrolysis was readily observed at various concentrations of wild-type DnaB-His”.

B1 was tested, and the “stoichiometry N” value [1] was 6.

For B2, the “stoichiometry N” value [2] was 1.9 DnaB-His per His-DciA.
